Columns and labels:
[1] = molecular target: B7-H6 (human) (UniProt Q68D85); assay: cell-based or functional assay
[2] = molecular target: NKp30 ligands on human dendritic cells (iDCs and mDCs); assay: cell-based or functional assay

Sequence of UniProt Q68D85 (Q68D85 25-454): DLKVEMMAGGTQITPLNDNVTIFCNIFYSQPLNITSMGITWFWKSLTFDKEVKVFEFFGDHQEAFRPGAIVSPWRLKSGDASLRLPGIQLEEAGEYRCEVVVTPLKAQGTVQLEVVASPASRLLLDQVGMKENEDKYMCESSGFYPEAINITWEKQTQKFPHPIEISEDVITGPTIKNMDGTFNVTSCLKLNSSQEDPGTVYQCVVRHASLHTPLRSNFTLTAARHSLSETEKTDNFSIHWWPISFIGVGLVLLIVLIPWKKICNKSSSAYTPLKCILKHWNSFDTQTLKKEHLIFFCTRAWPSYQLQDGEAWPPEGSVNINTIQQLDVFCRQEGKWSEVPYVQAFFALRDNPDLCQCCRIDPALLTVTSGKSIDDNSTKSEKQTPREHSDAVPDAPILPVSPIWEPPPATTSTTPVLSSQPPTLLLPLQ

Row | specific lysis of RMA/B7-H6 cells by transduced mouse T cells, 5-h LDH release, E:T 1:1 [1] | IFN-γ production by transduced human T cells after 24 h coculture with iDCs or mDCs (5:1), ELISA [2] | Substance
1 | 80% | – | NKp30-CD3ζ chimeric receptor
2 | 80% | 200 to 800 pg/mL | NKp30-CD28-CD3ζ chimeric receptor

Source: US20150110760A1
